Read-outs that look alike come from different tables or passages of the source.

The target in experiment [1] is eIF4GII_(551–745)/eIF4E complex (human | murine) (UniProt O43432). The experiment is described as follows: SEC-MALS; Superdex 200 10/300 in assay buffer, miniDAWN light scattering instrument, 100 µg sample. For orientation: In gel filtration, larger molecules generally elute earlier.
The target is the same in experiment [2]. The experiment is described as follows: ITC; MicroCal ITC microcalorimeter; the ligand titrated into the protein in the cell (cell about 10× lower than titrant); 25°C; 20 mM Hepes/KOH pH 7.4, 150 mM KCl, 1 mM EDTA; three experiments. (In ITC the heat of successive injections is recorded.)
The target in experiment [3] is human eIF4GII residues 551–745 (human) (UniProt O43432). The experiment is described as above.
Experiment [4] addresses recombinant full-length murine eIF4E (murine) (UniProt P63073). Description: SEC-MALS; static light scattering after 10 min of complex formation.
Experiment [5] concerns the target human eIF4GII residues 551–745 (human) (UniProt O43432). The experiment is described as follows: ITC; MicroCal ITC microcalorimeter; the ligand titrated into the protein in the cell (cell about 10× lower than titrant); 25°C; 20 mM Hepes/KOH pH 7.4, 150 mM KCl, 1 mM EDTA; three experiments. This is another data set of the same source.
Experiment [6] deals with recombinant full-length murine eIF4E (murine) (UniProt P63073). The experiment is described as above.
Sequence of recombinant full-length murine eIF4E (murine) (P63073 whole entry, the tested form may be a part): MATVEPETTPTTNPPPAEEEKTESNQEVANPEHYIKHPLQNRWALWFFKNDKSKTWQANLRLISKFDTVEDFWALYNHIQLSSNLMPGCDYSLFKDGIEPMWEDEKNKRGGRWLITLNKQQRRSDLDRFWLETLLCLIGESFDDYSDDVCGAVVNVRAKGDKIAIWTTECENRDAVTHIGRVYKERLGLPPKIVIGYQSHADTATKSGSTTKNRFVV
In experiment [7] the target is HRV2 2A^proC106S (human rhinovirus 2). The experiment is described as follows: SEC-MALS; Superdex 200 10/300 in assay buffer, miniDAWN light scattering instrument, 100 µg sample.
In experiment [8] the target is recombinant full-length murine eIF4E (murine) (UniProt P63073). The experiment is described as follows: ITC; MicroCal ITC microcalorimeter; the ligand titrated into the protein in the cell (cell about 10× lower than titrant); 25°C; 20 mM Hepes/KOH pH 7.4, 150 mM KCl, 1 mM EDTA; three experiments. This is another data set of the same source.
Experiment [9] shares this target. The experiment is described as follows: SEC-MALS; static light scattering on eIF4E/2A^proC106S complexes formed overnight.
For experiment [10], the target named is T1, recombinant full-length murine eIF4E (murine, UniProt P63073 1-217). Description: SEC-MALS; Superdex 200 10/300 in assay buffer, miniDAWN light scattering instrument, 100 µg sample. As to conditions: both partners purified.
T1 sequence (P63073 whole entry): as the sequence (P63073 whole entry, the tested form may be a part) above
Experiment [11] concerns the target T1, recombinant full-length murine eIF4E. The experiment is described as follows: ITC; MicroCal ITC microcalorimeter; the ligand titrated into the protein in the cell (cell about 10× lower than titrant); 25°C; 20 mM Hepes/KOH pH 7.4, 150 mM KCl, 1 mM EDTA; three experiments. The settings on record: both partners purified.

One may read the stoichiometry N as the number of molecules, sites or subunits per partner or assembly. As usually defined, the Kd is the constant that tells how readily two partners part at equilibrium. “CVB4 2A^proC110A with a N-terminal extension of eight VP1 residues (enzyme)” came in with a stoichiometry N in experiment [1] of 1. The Kd in experiment [2] and in experiment [3] was 19 µM each time.
Turning to “HRV2 2A^pro bearing the mutations C106S and C138S (enzyme)”, the stoichiometry N in [4] turned out to be 1.
As to HRV2 2A^proC106S (enzyme), the Kd in experiment [5] was 86 µM; in [6] it was 8 µM; in experiment [2], 5.1 µM; in experiment [3], 75 µM; in experiment [8], 12 µM. The stoichiometry N is 2 in experiment [7] and 1 in experiment [9].

B1: human eIF4GII residues 551–745 (domain or fragment, UniProt O43432 551-745, looked up)
chain: GFHPERDPSDLKKVKAVEENGEEAEPVRNGAESVSEGEGIDANSGSTDSSGDGVTFPFKPESWKPTDTEGKKQYDREFLLDFQFMPACIQKPEGLPPISDVVLDKINQPKLPMRTLDPRILPRGPDFTPAFADFGRQTPGGRGVPLLNVGSRRSQPGQRREPRKIITVSVKEDVHLKKAENAWKPSQKRDSQADD
For B1, the “stoichiometry N” value in [10] stood at 1. Further, in experiment [11], the Kd is 0.042 µM.

The values are drawn from PMC4815241 (Protein Science : A Publication of the Protein Society, 2015).
